Assay results published in the supplement of paper PMC11246515.
± gives the standard deviation of the averaged measurements.

Experiment: total protein half-life in vivo (active degradation + dilution); higher = more stable protein
[1] = E. coli NCM3722 delta-clpP delta-lon delta-hslV, growth: N-lim chemostat, doubling time 6 h
[2] = E. coli NCM3722 delta-clpP, growth: N-lim chemostat, doubling time 6 h
[3] = E. coli NCM3722 delta-hslV, growth: N-lim chemostat, doubling time 6 h
[4] = E. coli NCM3722 delta-lon, growth: N-lim chemostat, doubling time 6 h
[5] = wild type E. coli NCM3722, growth: C-lim chemostat, doubling time 3 h
[6] = wild type E. coli NCM3722, growth: C-lim chemostat, doubling time 12 h
[7] = wild type E. coli NCM3722, growth: N-lim chemostat, doubling time 6 h
[8] = wild type E. coli NCM3722, growth: N-lim chemostat, doubling time 12 h
[9] = wild type E. coli NCM3722, growth: P-lim chemostat, doubling time 6 h
[10] = wild type E. coli NCM3722, growth: P-lim chemostat, doubling time 12 h
[11] = wild type E. coli NCM3722, growth: C-lim chemostat, doubling time 6 h
[12] = E. coli NCM3722 delta-smpB, growth: N-lim chemostat, doubling time 6 h

MLKRYLVLSVATAAFSLPSLVNAAQQNILSVHILNQQTGKPAADVTVTLEKKADNGWLQLNTAKTDKDGRIKALWPEQTATTGDYRVVFKTGDYFKKQNLESFFPEIPVEFHINKVNEHYHVPLLLSQYGYSTYRGS
total protein half-life in vivo [1]: 5.28 ± 1.2 h
total protein half-life in vivo [2]: 5.47 ± 0.54 h
total protein half-life in vivo [3]: 5.53 h
total protein half-life in vivo [4]: 5.8 ± 0.16 h
total protein half-life in vivo [5]: > 4 h
total protein half-life in vivo [6]: 7.94 ± 2 h
total protein half-life in vivo [7]: 5.83 ± 0.21 h
total protein half-life in vivo [8]: 8.97 ± 0.37 h
total protein half-life in vivo [9]: 4.42 ± 0.68 h
total protein half-life in vivo [10]: 8.8 ± 0.6 h

MSDTKRNTIGKFGLLSLTFAAVYSFNNVINNNIELGLASAPMFFLATIFYFIPFCLIIAEFVSLNKNSEAGVYAWVKSSLGGRWAFITAYTYWFVNLFFFTSLLPRVIAYASYAFLGYEYIMTPVATTIISMVLFAFSTWVSTNGAKMLGPITSVTSTLMLLLTLSYILLAGTALVGGVQPADAITVDAMIPNFNWAFLGVTTWIFMAAGGAESVAVYVNDVKGGSKSFVKVIILAGIFIGVLYSVSSVLINVFVSSKELKFTGGSVQVFHGMAAYFGLPEALMNRFVGLVSFTAMFGSLLMWTATPVKIFFSEIPEGIFGKKTVELNENGVPARAAWIQFLIVIPLMIIPMLGSNTVQDLMNTIINMTAAASMLPPLFIMLAYLNLRAKLDHLPRDFRMGSRRTGIIVVSMLIAIFAVGFVASTFPTGANILTIIFYNVGGIVIFLGFAWWKYSKYIKGLTAEERHIEATPASNVD
total protein half-life in vivo [11]: 3.83 h

MGMENYNPPQEPWLVILYQDDHIMVVNKPSGLLSVPGRLEEHKDSVMTRIQRDYPQAESVHRLDMATSGVIVVALTKAAERELKRQFREREPKKQYVARVWGHPSPAEGLVDLPLICDWPNRPKQKVCYETGKPAQTEYEVVEYAADNTARVVLKPITGRSHQLRVHMLALGHPILGDRFYASPEARAMAPRLLLHAEMLTITHPAYGNSMTFKAPADF [P0AA37]
total protein half-life in vivo [1]: 4.98 ± 0.17 h
total protein half-life in vivo [2]: 4.59 ± 0.51 h
total protein half-life in vivo [3]: 5.03 ± 0.2 h
total protein half-life in vivo [4]: 4.55 ± 1.1 h
total protein half-life in vivo [12]: 4.63 ± 0.28 h
total protein half-life in vivo [5]: 3.82 h
total protein half-life in vivo [11]: 7.71 h
total protein half-life in vivo [7]: 4.66 ± 0.18 h
total protein half-life in vivo [8]: 7.6 h
total protein half-life in vivo [9]: 6.39 h
total protein half-life in vivo [10]: 12.7 h

MKRVLTALAATLPFAANAADAISGAVERQPTNWQAIIMFLIFVVFTLGITYWASKRVRSRSDYYTAGGNITGFQNGLAIAGDYMSAASFLGISALVFTSGYDGLIYSLGFLVGWPIILFLIAERLRNLGRYTFADVASYRLKQGPIRILSACGSLVVVALYLIAQMVGAGKLIELLFGLNYHIAVVLVGVLMMMYVLFGGMLATTWVQIIKAVLLLFGASFMAFMVMKHVGFSFNNLFSEAMAVHPKGVDIMKPGGLVKDPISALSLGLGLMFGTAGLPHILMRFFTVSDAREARKSVFYATGFMGYFYILTFIIGFGAIMLVGANPEYKDAAGHLIGGNNMAAVHLANAVGGNLFLGFISAVAFATILAVVAGLTLAGASAVSHDLYANVFKKGATEREELRVSKITVLILGVIAIILGVLFENQNIAFMVGLAFAIAASCNFPIILLSMYWSKLTTRGAMMGGWLGLITAVVLMILGPTIWVQILGHEKAIFPYEYPALFSITVAFLGIWFFSATDNSAEGARERELFRAQFIRSQTGFGVEQGRAH
total protein half-life in vivo [5]: > 4 h
total protein half-life in vivo [11]: 6.1 ± 0.31 h
total protein half-life in vivo [6]: 12.9 ± 1.4 h
total protein half-life in vivo [10]: 8.62 h

MSEIVIRHAETRDYEAIRQIHAQPEVYCNTLQVPHPSDHMWQERLADRPGIKQLVACIDGDVVGHLTIDVQQRPRRSHVADFGICVDSRWKNRGVASALMREMIEMCDNWLRVDRIELTVFVDNAPAIKVYKKYGFEIEGTGKKYALRNGEYVDAYYMARVK
total protein half-life in vivo [1]: 4.84 ± 0.053 h
total protein half-life in vivo [2]: 3.7 ± 0.65 h
total protein half-life in vivo [3]: 4.09 ± 0.13 h
total protein half-life in vivo [4]: 4.56 ± 0.45 h
total protein half-life in vivo [12]: 3.82 ± 0.33 h
total protein half-life in vivo [5]: 3.03 ± 0.086 h
total protein half-life in vivo [11]: 4.83 ± 0.18 h
total protein half-life in vivo [6]: 10.4 ± 0.85 h
total protein half-life in vivo [7]: 3.91 h
total protein half-life in vivo [8]: 6.73 ± 0.38 h
total protein half-life in vivo [9]: 5.26 ± 0.41 h
total protein half-life in vivo [10]: 11.3 ± 0.22 h

MNEFSILCRVLGSLYYRQPQDPLLVPLFTLIREGKLAANWPLEQDELLTRLQKSCDMTQVSADYNALFIGDECAVPPYRSAWVEGATEAEVRAFLSERGMPLADTPADHIGTLLLAASWLEDQSTEDESEALETLFSEYLLPWCGAFLGKVEAHATTPFWRTMAPLTRDAISAMWDELEEDSEE
total protein half-life in vivo [1]: 5.33 ± 0.97 h
total protein half-life in vivo [2]: 5.83 ± 1.6 h
total protein half-life in vivo [3]: 5.14 ± 0.17 h
total protein half-life in vivo [4]: 5.97 ± 1.5 h
total protein half-life in vivo [12]: 5.24 ± 0.65 h
total protein half-life in vivo [5]: 3.342 ± 0.021 h
total protein half-life in vivo [11]: 6.25 ± 0.39 h
total protein half-life in vivo [7]: 4.99 ± 0.71 h
total protein half-life in vivo [8]: 9.91 ± 0.97 h

MQNITQSWFVQGMIKATTDAWLKGWDERNGGNLTLRLDDADIAPYHDNFHQQPRYIPLSQPMPLLANTPFIVTGSGKFFRNVQLDPAANLGIVKVDSDGAGYHILWGLTNEAVPTSELPAHFLSHCERIKATNGKDRVIMHCHATNLIALTYVLENDTAVFTRQLWEGSTECLVVFPDGVGILPWMVPGTDEIGQATAQEMQKHSLVLWPFHGVFGSGPTLDETFGLIDTAEKSAQVLVKVYSMGGMKQTISREELIALGKRFGVTPLASALAL
total protein half-life in vivo [1]: 3.93 h
total protein half-life in vivo [2]: 2.62 h
total protein half-life in vivo [3]: 2.77 ± 0.41 h
total protein half-life in vivo [12]: 2.45 h
total protein half-life in vivo [11]: 5.1 h
total protein half-life in vivo [6]: > 16 h
total protein half-life in vivo [8]: 3.97 h
total protein half-life in vivo [9]: 4.9 h
total protein half-life in vivo [10]: 10.1 ± 0.11 h
